Columns and labels:
Kv7.2-hABCD = test: NMR spectra
Kv7.2-hAB[Δ6L] = test: NMR solution structure

Row | stoichiometry N (Kv7.2-hABCD) | stoichiometry N (Kv7.2-hAB[Δ6L]) | Substance
1 | 4 |  | Kv7.2-hABCD (domain or fragment)
2 |  | 1 | calmodulin (from UniProt P0DP23 1-149) (natural protein)
